Test results as given in paper PMC12452654.

Tests used:
[1] = biological target: HtpG from Synechococcus elongatus PCC 7942 (Synechococcus elongatus PCC 7942); test: AUC; sedimentation velocity, 45,000 rpm, 20 °C, 4 µM seHtpG, 40 mM HEPES-KOH pH 7.5, 150 mM KCl, 1 mM β-mercaptoethanol, absorbance at 280 nm
[2] = biological target: HtpG from Synechococcus elongatus PCC 7942 (Synechococcus elongatus PCC 7942); test: SEC; Superdex 200 16/60, 40 mM HEPES-KOH pH 7.5, 150 mM KCl, 0.5 mM TCEP, 0.5 mL/min; peak at 65 mL, close to the 158 kDa IgG standard

For “HtpG from Synechococcus elongatus PCC 7942 (natural protein)”, the stoichiometry N [1] was 2 and the stoichiometry N [2] was 2.
